Measurements taken from publication PMC12812394.

Biological target: Pi65-nLUC (rice (Oryza sativa ssp. japonica cv. GY129))
Assay: split reporter (BiFC, NanoBiT); NanoLuc luciferase complementation (nLUC/cLUC fusions, 35S promoter) in co-infiltrated Nicotiana benthamiana leaves, 48-72 h at 22 °C; whole-leaf luminescence with furimazine, 1-min exposure

luminescence, fold over the negative controls: 12.3 fold
B1: OsAPx4-cLUC (enzyme)
chain: MAAPVVDAEYLRQVDRARRHLRALISSKGCAPIMLRLAWHDAGTYDVNTKTGGANGSIRYEEEYTHGSNAGLKIAIDLLEPIKAKSPKITYADLYQLAGVVAVEVTGGPTVEFIPGRRDSSVCPREGRLPDAKKGALHLRDIFYRMGLSDKDIVALSGGHTLGRAHPERSGFEGAWTQEPLKFDNSYFLELLKGESEGLLKLPTDKALLEDPSFRRYVDLYARDEDTFFKDYAESHKKLSELGFTPRSSGPASTKSDLSTGAVLAQSAVGVAVAAAVVIVSYLYEASKKSK
